Test results: PMC4844422, “Activity Regulation by Heteromerization of Arabidopsis Allene Oxide Cyclase Family Members” (Plants, 2016)

Molecular target: the molecule itself
Test: SDS-PAGE after mild SDS treatment (SDS-stable oligomer); purified His-tagged protein treated with 1% SDS for 5 min at room temperature or 42 °C, 12% SDS-PAGE, anti-His-tag immunoblot; trimer at about 65 kDa, monomer 26 kDa

Protein | stoichiometry N
Arabidopsis allene oxide cyclase 2 (AOC2), recombinant, with N-terminal His-tag (enzyme, Arabidopsis thaliana, UniProt Q9LS02 78-253, looked up, also called AtAOC2; hAOC2; source: E. coli M15 (pQE30), purified (Ni-NTA-agarose); not shown: His-tag, N-terminal, kept) PSKVQELSVYEINELDRHSPKILKNAFSLMFGLGDLVPFTNKLYTGDLKKRVGITAGLCVVIEHVPEKKGERFEATYSFYFGDYGHLSVQGPYLTYEDSFLAITGGAGIFEGAYGQVKLQQLVYPTKLFYTFYLKGLANDLPLELTGTPVPPSKDIEPAPEAKALEPSGVISNYTN | 3
Arabidopsis allene oxide cyclase 2 (AOC2), recombinant, with C-terminal His-tag (enzyme, Arabidopsis thaliana, UniProt Q9LS02 78-253, looked up, also called AtAOC2; source: E. coli M15 (pQE60), purified (Ni-NTA-agarose); not shown: His-tag, C-terminal, kept) PSKVQELSVYEINELDRHSPKILKNAFSLMFGLGDLVPFTNKLYTGDLKKRVGITAGLCVVIEHVPEKKGERFEATYSFYFGDYGHLSVQGPYLTYEDSFLAITGGAGIFEGAYGQVKLQQLVYPTKLFYTFYLKGLANDLPLELTGTPVPPSKDIEPAPEAKALEPSGVISNYTN | 3
